± gives the standard deviation.
Assay: protein stability index of a GFP-peptide fusion (GPS, HEK-293T) (PSI 1-6); higher = more stable
Details: c terminus: a fixed tail appended
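Note: 24-mer peptide tiles fused after GFP, lentivirally expressed, FACS-sorted into six equal bins by GFP/DsRed ratio, decoded by Illumina sequencing, PSI is the read-weighted mean bin number.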

Sequence	protein stability index (treatment: DMSO)	protein stability index (treatment: MLN4924 1 uM, 8 h)
EPSHSVKVHTVPKPGKGADLSKPP [ATE1]	4.96 ± 0.22	4.96 ± 0.27
PMALLTIGSSSEKEIDDVIDEIIS [TFE3]	2.98 ± 0.099	3.29 ± 0.095
SQSHCYRTCFSPASDGSDFTFLRP [PCDHGC5]	2.15 ± 0.26	2.09 ± 0.16
ALVYLPGVIAAIVQLHNGTKYKKF [STEAP1]	2.73 ± 0.44	2.75 ± 0.68
DILMEEEEGVVGGLSGGALSPLRA [TFE3]	4.45 ± 0.42	4.11 ± 0.23
VYSCAFSPDSSMLCSVGASKAVFL [WSB1]	2.8 ± 0.5	2.86 ± 0.49
VFSQMIHLNETVKAPDIECVLRCS [FEM1B]	2.13 ± 0.36	2.11 ± 0.35
HPDSPATGAHWMRQPVSFHRVKLT [TBX6]	3.16 ± 0.16	3.23 ± 0.32
VVSTSGEQMKVYKCEHCRVLFLDH [IKZF1]	2.69 ± 0.4	2.3 ± 0.64
EDLLLPGACPGADEAGGGAEGDSW [WEE1]	5.53 ± 0.12	5.58 ± 0.22
YYTTPIYRFRMKCHLCVNYIEMQT [YJU2B]	2.73 ± 0.43	2.51 ± 0.64
ESKDYLSLYLLLVSCPKSEVRAKF [SPOPL]	2.92 ± 0.38	2.82 ± 0.63
EEETQFYISETVLAIDAIHQLGFI [STK38L]	2.48 ± 0.51	2.58 ± 0.2
QTSSSSSQSETSSAVSTPSPVTRT [DLC1]	5.45 ± 0.22	5.28 ± 0.38
EKSGFSQHQNKSPPKVKAEDGMQC [DLC1]	5.19 ± 0.33	5.22 ± 0.13
YPCLEKPRIWSLAHTATASAVEGA [IRX6]	2.8 ± 0.41	2.98 ± 0.49
SSEHVTESVADLLALEEPVDYKQS [SLC6A17]	5.17 ± 0.26	5.25 ± 0.34
GYTFDYAYDWVGRPIPTPVGSVHV [CSNK1G1]	2.13 ± 0.44	2.14 ± 0.4
DSYESYGNSRSAPPTRGPPPSYGG [RBMX]	4.27 ± 0.35	4.33 ± 0.4
ILDDGTISAHKPLLISSCDWMAAM [RHOBTB2]	2.29 ± 0.24	2.12 ± 0.19
MVHVARLLLLLLTFFLRTDAETPP [PTPRD]	2.91 ± 0.44	2.95 ± 0.44
PGKYFSAAEYHAQRLKAVIVIQTY [IQUB]	2.81 ± 0.32	2.5 ± 0.66

Sequence	protein stability index (treatment: DMSO)	protein stability index (treatment: MLN4924 1 uM, 8 h)
GYHQVPGSAAPGSPLAADPACLGQ [FOXJ1]	4.46 ± 0.22	4.29 ± 0.18
IIKTEKVDLELFPSPDMECADVPL [ETS1]	3.99 ± 0.19	3.97 ± 0.22
ESKTDGDDTETVPSEQSHASGKLR [TCF25]	5.54 ± 0.26	5.56 ± 0.4
CALEEYVRSQYPNQPTRFGKLLLR [NR2F2]	2.22 ± 0.17	2.33 ± 0.25
SVLNGKFANLIKEFVIIDCRYPYE [CDC25A]	2.63 ± 0.36	2.55 ± 1
AQSRLEDPGQDLVPKQAIQVQEAD [DLX1]	5.35 ± 0.18	5.32 ± 0.27
EAKEGDLHRIEIPFKFHMLHSGLV [CARM1]	2.07 ± 0.48	2.49 ± 0.23
VTGLMEATQMMVDIDGDVLVFLEL [RHOBTB2]	3.31 ± 0.2	3.29 ± 0.8
SPSTRGSPNRSLPSPGVLCGSARP [ATF4]	4.49 ± 0.46	4.88 ± 0.18
FQQDTKGLVDFRDVALALAALDGG [LPCAT4]	2.48 ± 0.3	2.71 ± 0.2
SEEELTHIFGDLDSYIPLHEDLLT [NET1]	3.88 ± 0.19	4.03 ± 0.33
IEPLVPEEKMETKTESSGIETEPT [EPB41L3]	5.45 ± 0.31	5.46 ± 0.51
PPPTTAPHKERYFDRVDENNPEYL [ADD1]	5.06 ± 0.17	5.14 ± 0.17
LTRAGMSYYNSPGLHVQHMGTSHG [CCDC6]	2.67 ± 0.2	2.81 ± 0.12
FNPPPSRPLQVNTADHRIYSYVVS [FAF2]	2.62 ± 0.29	2.92 ± 0.38
IKEVVEKREACHCEEVKMTVASEA [FAN1]	4.89 ± 0.25	4.95 ± 0.17
LMMRMGILGRGLQEYQLPYQRVLP [TCAP]	2.48 ± 0.4	2.28 ± 0.25
TTDPDLILEVLRSSPMVQVDEKGE [LARP4]	4.61 ± 0.32	4.73 ± 0.24
KSKKYSDVEVPASVTGYSFASDGD [ADD1]	4.68 ± 0.38	4.82 ± 0.22
SQIRLNREHKETCEMDWSDKMEAY [TEKT4]	4.47 ± 0.11	4.58 ± 0.28
ESNAAQYSPEALASIQNHVRKREA [EFHC1]	4.87 ± 0.24	4.7 ± 0.27
EKTQDDLMKHQTNISELKRTFLET [EPB41L3]	4.18 ± 0.68	4.2 ± 0.31

Sequence	protein stability index (treatment: DMSO)	protein stability index (treatment: MLN4924 1 uM, 8 h)
VLYPVPLESYEDIHGTLHLERLAY [PRAME]	2.31 ± 0.23	2.38 ± 0.36
LLFKDLIKLFACYNDGVINLLEKF [SNAP91]	3.04 ± 0.34	2.81 ± 0.87
CQHLSSSAEELRKARSNSTLSKSE [KCNA3]	5.01 ± 0.33	4.75 ± 0.26
KRRKSMSGASPKESTNPEKAHETL [CDC25A]	5.24 ± 0.25	5.03 ± 0.23
LLGEIDLEKESDTPLQQVSIEEIL [LSM1]	4.97 ± 0.16	4.93 ± 0.27
PPLSHIMAQPLCIRALLNLHTDVG [NEK8]	2.21 ± 0.41	2.03 ± 0.13
HWDLAELLPNQSHGNQSAGEDQAF [SLC22A15]	4.85 ± 0.28	4.8 ± 0.28
EEADFLSAETGSPRLTMHYPCLEK [IRX6]	4.49 ± 0.19	4.56 ± 0.065
GIIRCPDGISIPELREACDYLCIS [BTBD10]	2.36 ± 0.35	2.5 ± 0.2
GCWATDAAPAAGLCGAGSEPSIAP [RSPH3]	4.26 ± 0.25	4.41 ± 0.07
KKKGMYRKAITEAANAARHVAPEI [PWWP2B]	4.33 ± 0.045	4.5 ± 0.28
QQWFPSLELGHWLYQTELVENECY [TOR1AIP2]	2.55 ± 0.54	2.34 ± 0.47
PGPPGPTGVPGSPGHIGPPGPTGP [EMID1]	5.29 ± 0.11	5.13 ± 0.44
PRVEYIDRPRCCLRGKECCINRFQ [BTBD1]	2.42 ± 0.13	2.61 ± 0.28
QQFKQYSRHVTTRAALTYTSLEIT [M1AP]	2.44 ± 0.18	2.6 ± 0.3
GDKCHSLVGKPKIFIIQACRGNQH [CASP6]	2.19 ± 0.3	2.33 ± 0.66
EREMAEIRDQMQQQLNDYEQLLDV [LMNB1]	5.15 ± 0.17	5.09 ± 0.19
RCGKHFGTILNYLRDGAVPLPESR [KCTD10]	2.27 ± 0.3	2.38 ± 0.32
NCCLTLCNFSIPEELEFQYRRVNE [ZER1]	2.55 ± 0.33	2.55 ± 0.14
FTTLTDRELEEYRREVERKQKGSE [ADD1]	4.53 ± 0.35	4.72 ± 0.4
EGRPGAATFHVGGGPAQNAPHQQP [TFE3]	4.79 ± 0.17	4.8 ± 0.24
